Consider four substances from article PMC5431095.

A short description of data set [1]: Galectin-3 over NuMA fluorescence intensity. The conditions noted are these: glycan lost; control: wt NuMA-GFP in NuMA-depleted HeLa.
The nature of data set [2]: confocal microscopy of metaphase cells. The conditions noted are these: glycan lost; control: wt NuMA-GFP in NuMA-depleted HeLa.
A short description of data set [3]: fluorescence microscopy, NuMA volume at spindle poles. As to conditions: control: DMSO.

As for “NuMA (Nuclear Mitotic Apparatus protein): S1844A”, the “other: Galectin-3 recruitment to spindle poles” value in data set [1] was “decreases”. The localisation_or_trafficking result in data set [2] was “changes”.

For the substance “NuMA (Nuclear Mitotic Apparatus protein): swainsonine”, the localisation_or_trafficking entry in data set [3] (glycan changed form) is recorded as “no change”.

For “NuMA (Nuclear Mitotic Apparatus protein): GalNAcα-O-benzyl”, the localisation_or_trafficking entry in data set [3] (glycan lost) was “no change”.

On to “NuMA (Nuclear Mitotic Apparatus protein): Ac-5SGlcNAc”, for which, in data set [3] (glycan lost), the localisation_or_trafficking entry was “changes”.
